Experimental data from patent US20200109190A1 (AstraZeneca / MedImmune, published 2020).

B1: SAN481-SY-YTE (antibody, V domains shown)
VH: QLQLVESGGGAVQPGRSLKLSCAASGFNFSTYAMHWVRQAPGRGLEWVAVTSFDGSNEYYIDSVKGRFTISRDNTKNTLYLQMTGLRVEDTALYFCARDEYTGGWYSVGYWGQGTLVTVSS
VL: QSVLTQPPSASGTPGQRVTISCSGSSYNIGSNYVYWYQQFPGTAPKLLISRSIQRPSGVPDRFSGSKSVTSASLAISGLRSEDEADYYCAAWDDSLRAWVFGGGTKLTVLG
notes: also called QD2; SAN481VL26S32Y-YTE
B2: SAN481-T-YTE (antibody, V domains shown)
VH: QLQLVESGGGAVQPGRSLKLSCAASGFTFSTYAMHWVRQAPGRGLEWVAVTSFDGSNEYYIDSVKGRFTISRDNTKNTLYLQMTGLRVEDTALYFCARDEYTGGWYSVGYWGQGTLVTVSS
VL: QSVLTQPPSASGTPGQRVTISCSGNSYNIGSNSVYWYQQFPGTAPKLLISRSIQRPSGVPDRFSGSKSVTSASLAISGLRSEDEADYYCAAWDDSLRAWVFGGGTKLTVLG
notes: also called QD3; SAN481VH28T-YTE
B3: SAN481-TF-YTE (antibody, V domains shown)
VH: QLQLVESGGGAVQPGRSLKLSCAASGFTFSTYAMHWVRQAPGRGLEWVAVTSFDGSNEYYIDSVKGRFTISRDNTKNTLYLQMTGLRVEDTALYFCARDEYTGGFYSVGYWGQGTLVTVSS
VL: QSVLTQPPSASGTPGQRVTISCSGNSYNIGSNSVYWYQQFPGTAPKLLISRSIQRPSGVPDRFSGSKSVTSASLAISGLRSEDEADYYCAAWDDSLRAWVFGGGTKLTVLG
notes: also called QD4; SAN481-VH28T100E-YTE

How the values were obtained:
[1] = biological target: T1, LukSF (Staphylococcus aureus); assay: cell-based or functional assay
[2] = biological target: T2, HlgAB (Staphylococcus aureus, UniProt P0A074 30-309); assay: cell-based or functional assay
T2 sequence 1: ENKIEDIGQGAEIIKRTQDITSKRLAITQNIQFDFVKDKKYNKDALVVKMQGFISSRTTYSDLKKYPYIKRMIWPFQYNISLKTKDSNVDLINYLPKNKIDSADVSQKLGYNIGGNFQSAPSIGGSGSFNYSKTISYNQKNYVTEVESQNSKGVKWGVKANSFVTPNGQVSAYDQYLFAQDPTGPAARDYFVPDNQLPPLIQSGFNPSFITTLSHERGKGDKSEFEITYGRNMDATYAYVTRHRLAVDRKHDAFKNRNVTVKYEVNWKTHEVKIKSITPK
T2 sequence 2: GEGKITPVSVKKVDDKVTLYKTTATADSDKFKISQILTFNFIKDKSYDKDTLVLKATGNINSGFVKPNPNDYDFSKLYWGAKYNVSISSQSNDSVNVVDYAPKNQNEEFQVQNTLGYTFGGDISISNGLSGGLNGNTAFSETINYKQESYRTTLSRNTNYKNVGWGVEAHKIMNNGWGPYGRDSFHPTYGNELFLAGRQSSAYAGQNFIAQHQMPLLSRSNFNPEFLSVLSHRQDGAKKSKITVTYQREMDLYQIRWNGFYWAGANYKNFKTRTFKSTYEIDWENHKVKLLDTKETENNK

[3] = biological target: S. aureus LukF (Staphylococcus aureus); assay: method not stated at Table 8; BLI (Octet) is described in Example 4
[4] = biological target: T1, LukSF; assay: cell-based or functional assay; remark: listed apart in the source
[5] = biological target: T2, HlgAB; assay: cell-based or functional assay; remark: listed apart in the source
[6] = biological target: T1, LukSF; assay: cell-based or functional assay; remark: listed apart in the source
[7] = biological target: T2, HlgAB; assay: cell-based or functional assay; remark: listed apart in the source

Binder	IC50 (LukSF) HL-60; Dark sample [1] [µg/mL]	IC50 (LukSF) HL-60; Light sample [1] [µg/mL]	IC50 (HIgAB) HL-60; Dark sample [2] [µg/mL]	IC50 (HIgAB) HL-60; Light sample [2] [µg/mL]	Kd [3] [nM]	IC50 Fold loss vs. WT (LukSF) [4] [fold]	IC50 for LukSF [4] [µg/mL]	IC50 Fold loss vs. WT (HIgAB) [5] [fold]	IC50 for HIgAB [5] [µg/mL]	IC50 (LukSF) HL-60 [6] [µg/mL]	IC50 (HIgAB) HL-60 [7] [µg/mL]
B1	0.221	0.241	0.721	0.736	0.101	1.14	0.183	0.97	0.551	0.18	0.55
B2	0.193	0.205	0.707	0.624	< 0.001	1.04	0.166	0.948	0.539	0.17	0.54
B3					1.21	5.07	0.811	0.775	0.441	0.81	0.44
